These results are taken from article PMC5505470.

For series [1], the target named is PTBP1 full length (UniProt P26599-1 1-531, C250S;C251S). Briefly: UV crosslinking CLIR-MS/MS.
The target of series [2] is T1, PTBP1-RRM1 (UniProt P26599-1 41-163). Briefly: NMR.
Series [3] deals with T2, PTBP1-RRM2 (UniProt P26599-1 178-317, C250S;C251S). Briefly: NMR solution structure model.
Series [4] has as its target T2, PTBP1-RRM2. Briefly: NMR.
Series [5] addresses T1, PTBP1-RRM1. The series is described as follows: NMR. This is another data set of the same source.
Series [6] has as its target PTBP1-RRM34 (UniProt P26599-1 324-531). The series is described as follows: NMR.
Series [7] addresses PTBP1-RRM1;PTBP1-RRM34 (;, UniProt P26599-1;P26599-1 41-163;324-531, |). The series is described as follows: NMR.

Like-named read-outs stand apart in the source and are kept apart here.

B1: EMCVDElinkF (structured_RNA)
RNA: GGAUACUGGCCGAAGCCGCUUGGAAUAAGGCCGGUGUGCGUUUGUCUAUAUGUUAUUUUCCACCAUAUUGCCGUCUUUUGGCAAUGUG
Turning to B1, the binding result in series [1] is on record as “binds”.
On to GGAUAUUGCCGUCUUUUGGCAAUGUCC (structured_RNA) [EMCVF], for which the binding result in series [2] and in series [3] was “binds” throughout.
For GGAGCGUUUGUCUAUAUGUUCC (structured_RNA) [EMCVE], the binding result in series [4] and in series [5] was “binds” in each case.

B2: EMCVDElink (structured_RNA)
RNA: GGAUACUGGCCGAAGCCGCUUGGAAUAAGGCCGGUGUGCGUUUGUCUAUAUGUUAUUUUCCAC
Regarding B2, the binding result in series [6] and in series [7] was “binds” in each case.
